The values that follow come from patent publication US20070286858A1 (Pfizer, published 2007).

Assay [1] has as its target T1, human RAGE-Fc fusion protein (human, UniProt Q15109 23-344).
T1 construct: also called hRAGE-Fc; huRAGE-Fc; not shown: Fc domain of human IgG
The assay is described as follows: antibody competition ELISA on hRAGE-Fc; competitor biotinylated XT-M4; sheet note: N52D (labeled N71D) is glycosylation mutant in CDR2 of HC. On the procedure: ELISA plates were coated overnight with 1 ug/ml human RAGE-Fc. […] Briefly, plates were coated overnight with 1 ug/ml human RAGE-Fc.

For assay [2], the target named is T2, human RAGE, full length (human, UniProt Q15109 23-404).
T2 construct: Expressed on 293 or CHO cells, or endogenous in human lung sections; also called hRAGE; cell-surface hRAGE
The assay is described as follows: FACS, 293 cells infected with human RAGE adenovirus. On the procedure:
Human 293 cells were infected with the human and murine RAGE adenovirus. Infected cells were suspended in PBS containing 1% BSA at a density of 4×10⁴ cells/ml. Cells were incubated with 100 ul of sample (diluted immune sera, hybridoma supernatants or purified antibodies) for 30 min at 4° C. After washing, cells were incubated with PE-labeled goat, anti-mouse, IgG, F(ab′)₂ (DAKO Corporation GlostrupDenmark) for 30 min at 4° C. in the dark. Cell-associated fluorescence signals were measured by a FACScan flow cytofluorometer (Becton Dickinson) using 5000 cells per treatment. Propidium iodide was used to identify dead cells, which were excluded from the analysis.

For assay [3], the target named is T1, human RAGE-Fc fusion protein. As to the kind of experiment: ELISA, coated hRAGE-Fc. How it is done: (§1) Antibodies were purified from hybridoma supernatants using standard procedures. Purified antibodies were evaluated for binding to soluble forms of RAGE with the use of ELISA. […] After washing and blocking with PBS containing 1% BSA and 0.05% Tween-20, 100 ul of sample (samples were in several forms: diluted immune serum, hybridoma supernatants, or purified antibodies, as indicated) was added and incubated for 1 hour at room temperature. The plates were washed with PBS, pH 7.2 and bound anti-RAGE antibodies were detected with the use of peroxidase-conjugated goat, anti-mouse IgG (H+L) (IgG) (Pierce, Rockford, Ill.) followed by incubation with the substrate TMB (BioFX Laboratories Owings Mills, Md. Laboratories). Absorbance values were determined at 450 nm in a spectrophotometer. The concentrations of monoclonal antibodies were determined with the use of peroxidase-labeled goat, anti-mouse IgG (Fcγ) (Pierce Rockford, Ill.) and a standard curve was generated by a purified, isotype-matched mouse IgG.

For assay [4], the target named is rhNCAM-1 (human, UniProt P13591-3 20-603, limits assumed). As to the kind of experiment: direct binding ELISA, receptor coated at 1 µg/ml, antibody at 20 µg/ml. On the procedure:
(§2) These receptors were chosen because they are cell-surface expressed, like RAGE, and their interaction with ligand is similarly dependent on charge. […] ELISA plates were coated overnight with 1 μg/ml of the listed receptor proteins.

Assay [5] addresses rhTLR4 (C-terminal His tag) (human, UniProt O00206 24-631). The description is as above. How it is done: as §2
In assay [6] the target is T1, human RAGE-Fc fusion protein. The description is as above. On the procedure: as §2
Assay [7] addresses hLox1-Fc (human, UniProt P78380 61-273). The assay is described as above. On the procedure: as §2
Assay [8] has as its target T3, rhB7-H1-Fc (human, UniProt Q9NZQ7 19-239).
T3 construct: not shown: Fc part not described
The assay is described as above. On the procedure:
as §2

For assay [9], the target named is T4, rhICAM-1-Fc (human, UniProt P05362 28-480).
T4 construct: also called rhlCAM-1-Fc; not shown: Fc part not described
Described as above. On the procedure:
as §2

In assay [10] the target is T5, rhVCAM-1 (human, UniProt P19320 25-698).
T5 sequence (looked up): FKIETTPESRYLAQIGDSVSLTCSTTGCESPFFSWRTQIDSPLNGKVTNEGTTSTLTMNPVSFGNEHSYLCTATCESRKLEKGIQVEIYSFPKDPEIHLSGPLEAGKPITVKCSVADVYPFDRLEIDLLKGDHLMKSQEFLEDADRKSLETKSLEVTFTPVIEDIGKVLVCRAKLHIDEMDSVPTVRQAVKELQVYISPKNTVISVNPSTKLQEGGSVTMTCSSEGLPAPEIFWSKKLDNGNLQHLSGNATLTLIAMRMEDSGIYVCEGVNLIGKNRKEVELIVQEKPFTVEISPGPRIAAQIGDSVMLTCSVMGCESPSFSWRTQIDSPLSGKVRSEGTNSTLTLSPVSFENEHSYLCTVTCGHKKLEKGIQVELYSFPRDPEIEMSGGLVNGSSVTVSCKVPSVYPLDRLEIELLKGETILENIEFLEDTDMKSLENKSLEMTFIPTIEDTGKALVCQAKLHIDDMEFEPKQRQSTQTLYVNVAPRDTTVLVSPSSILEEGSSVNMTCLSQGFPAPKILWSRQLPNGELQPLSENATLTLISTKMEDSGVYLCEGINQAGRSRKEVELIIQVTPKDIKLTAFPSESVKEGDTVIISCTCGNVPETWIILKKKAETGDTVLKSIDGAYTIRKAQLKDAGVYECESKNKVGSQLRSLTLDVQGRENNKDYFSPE
Described as above. On the procedure:
as §2

Assay [11] has as its target T6, mLox1-Fc (mouse, UniProt Q9EQ09 60-363).
T6 construct: also called mLoxl-Fc; not shown: Fc part not described
Described as above. How it is done:
as §2

The target in assay [12] is T1, human RAGE-Fc fusion protein. The assay is described as follows: ligand competition ELISA: HMGB1 coated, hRAGE-Fc pre-mixed with mAb, anti-huIgG-HRP; blocked ligand HMGB1. On the procedure: Wells were washed and blocked as described above and exposed to 100 μl of pre-incubated mixtures of RAGE-Fc or TrkB-Fc (a non-specific Fc control), at 0.1 μg/ml, plus various forms of the indicated antibody preparation (dilutions of immune sera, hybridoma supernatants or purified antibodies) for 1 hour at room temperature.

Assay [13] has the same target. The assay is described as follows: direct binding ELISA, coated hRAGE-Fc. How it is done:
as §1

Assay [14] has as its target T7, soluble human streptavidin-tagged RAGE (human, UniProt Q15109 23-344).
T7 construct: also called hRAGE-SA; human RAGE-strep
The assay is described as follows: BIACORE capture assay, antibody on CM5 chip, hRAGE-SA 0-100 nM in solution. On the procedure:
The assays were performed by coating antibodies onto a CM5 BIA chip with 5000-7000 RU.

In assay [15] the target is T1, human RAGE-Fc fusion protein. The assay is described as follows: BIACORE direct binding, hRAGE-Fc immobilized. On the procedure: The binding of selected murine and rat anti-RAGE antibodies to human and murine RAGE and to the V domains of human and murine RAGE was analyzed by BIACORE® direct binding assay. […] Solution of the anti-RAGE antibodies at two concentrations, 50 and 100 nm, were run over the immobilized RAGE-Fc proteins in duplicate. BIACORE™ technology utilizes changes in the refractive index at the surface layer upon binding of the anti-RAGE antibodies to the immobilized RAGE antigen. Binding is detected by surface plasmon resonance (SPR) of laser light refracting from the surface.
The kinetic rate constants (kₐ and kd) and association and dissociation constants (Kₐ and Kd) for the binding of murine and rat anti-RAGE antibodies to human and murine RAGE were determined by BIACORE™ direct binding assay. Analysis of the signal kinetics data for on-rate and off-rate allows the discrimination between non-specific and specific interactions.

For assay [16], the target named is T8, human RAGE V-region-Fc fusion protein (human, UniProt Q15109 23-118).
T8 construct: also called hRAGE V-domain-Fc; hRAGE-V-Fc (CM); not shown: Fc domain of human IgG
The assay is described as follows: direct binding ELISA, coated hRAGE V-region-Fc. On the procedure: as §1

Changes are numbered by the printed parent chain. Names may count otherwise.

Sequence of rhTLR4 (C-terminal His tag) (O00206 24-631 limits assumed): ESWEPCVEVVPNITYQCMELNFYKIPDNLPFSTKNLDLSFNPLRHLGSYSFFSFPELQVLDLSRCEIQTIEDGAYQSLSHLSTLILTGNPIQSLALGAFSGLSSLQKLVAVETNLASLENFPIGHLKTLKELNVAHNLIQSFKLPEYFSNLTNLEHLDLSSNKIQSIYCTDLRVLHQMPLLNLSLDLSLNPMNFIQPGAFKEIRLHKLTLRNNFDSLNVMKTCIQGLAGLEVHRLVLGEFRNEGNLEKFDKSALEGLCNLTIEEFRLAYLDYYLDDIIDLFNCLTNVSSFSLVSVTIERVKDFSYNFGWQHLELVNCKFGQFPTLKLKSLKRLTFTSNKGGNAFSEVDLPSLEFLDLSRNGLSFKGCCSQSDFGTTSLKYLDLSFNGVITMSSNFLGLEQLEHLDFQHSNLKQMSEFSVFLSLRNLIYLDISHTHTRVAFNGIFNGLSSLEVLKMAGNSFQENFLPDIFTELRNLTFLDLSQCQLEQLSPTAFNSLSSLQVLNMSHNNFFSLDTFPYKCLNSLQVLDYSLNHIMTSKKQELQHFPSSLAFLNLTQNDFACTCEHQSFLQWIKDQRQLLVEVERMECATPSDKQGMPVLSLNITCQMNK
T3 sequence (Q9NZQ7 19-239): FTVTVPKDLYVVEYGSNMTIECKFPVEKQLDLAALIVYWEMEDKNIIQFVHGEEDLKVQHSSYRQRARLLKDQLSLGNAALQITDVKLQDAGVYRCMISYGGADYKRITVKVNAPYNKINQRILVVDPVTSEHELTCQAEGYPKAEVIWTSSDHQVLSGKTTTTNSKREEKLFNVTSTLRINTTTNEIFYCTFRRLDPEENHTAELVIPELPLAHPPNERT
T4 sequence (P05362 28-480): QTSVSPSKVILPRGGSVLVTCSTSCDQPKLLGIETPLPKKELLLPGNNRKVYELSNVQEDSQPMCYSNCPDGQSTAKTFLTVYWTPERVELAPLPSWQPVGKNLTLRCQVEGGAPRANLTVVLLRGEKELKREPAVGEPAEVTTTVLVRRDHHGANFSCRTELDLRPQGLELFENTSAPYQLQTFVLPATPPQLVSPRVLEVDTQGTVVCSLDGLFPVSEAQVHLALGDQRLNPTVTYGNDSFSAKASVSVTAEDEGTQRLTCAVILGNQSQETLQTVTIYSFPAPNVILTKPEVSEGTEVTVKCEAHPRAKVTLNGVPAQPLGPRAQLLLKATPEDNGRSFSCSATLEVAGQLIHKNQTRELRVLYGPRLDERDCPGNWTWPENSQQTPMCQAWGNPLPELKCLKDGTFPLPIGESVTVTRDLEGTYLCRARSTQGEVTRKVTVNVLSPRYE
Sequence of rhNCAM-1 (P13591 other isoform, or with tags, fused parts or gaps limits assumed): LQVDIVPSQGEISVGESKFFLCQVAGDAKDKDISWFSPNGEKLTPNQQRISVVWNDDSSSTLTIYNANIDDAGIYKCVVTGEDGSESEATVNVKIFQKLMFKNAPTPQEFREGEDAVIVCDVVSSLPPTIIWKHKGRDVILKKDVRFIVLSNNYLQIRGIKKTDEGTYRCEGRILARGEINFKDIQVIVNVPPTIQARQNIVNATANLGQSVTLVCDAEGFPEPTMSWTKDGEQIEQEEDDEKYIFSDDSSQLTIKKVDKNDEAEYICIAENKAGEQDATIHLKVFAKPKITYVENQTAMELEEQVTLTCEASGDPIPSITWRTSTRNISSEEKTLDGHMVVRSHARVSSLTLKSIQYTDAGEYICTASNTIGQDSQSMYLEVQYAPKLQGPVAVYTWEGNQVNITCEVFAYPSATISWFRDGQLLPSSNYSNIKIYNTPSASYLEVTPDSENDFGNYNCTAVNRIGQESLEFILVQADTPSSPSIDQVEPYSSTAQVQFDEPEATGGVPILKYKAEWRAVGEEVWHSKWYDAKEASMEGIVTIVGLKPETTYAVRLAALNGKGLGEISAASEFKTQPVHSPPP
T6 sequence (Q9EQ09 60-363): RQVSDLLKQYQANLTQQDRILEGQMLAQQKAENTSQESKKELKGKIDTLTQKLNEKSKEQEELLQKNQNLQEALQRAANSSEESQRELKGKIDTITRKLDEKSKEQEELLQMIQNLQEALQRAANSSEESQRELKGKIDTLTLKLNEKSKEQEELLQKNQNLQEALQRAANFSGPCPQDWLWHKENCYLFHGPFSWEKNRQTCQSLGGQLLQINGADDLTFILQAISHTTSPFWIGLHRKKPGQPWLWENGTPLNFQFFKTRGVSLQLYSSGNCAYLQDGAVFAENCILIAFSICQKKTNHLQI

B1: XT-M4 with N52D in the heavy chain variable region (antibody, name in Kabat numbering, V domains shown)
VH: EVQLVESGGGLVQPGRSLKLSCVVSGFTFNNYWMTWIRQTPGKGLEWVASIDNSGDNTYYPDSVKDRFTISRDNAKSTLYLQMNSLRSEDTATYYCTRGGDITTGFDYWGQGVMVTVSS
VL: DIQMTQSPSSMSVSLGDTITITCRASQDVGIYVNWFQQKPGKSPRRMIYRATNLADGVPSRFSGSRSGSIYSLTISSLESEDVADYHCLEFDEHPLTFGSGTKVEIK
notes: Removes the glycosylation site in CDR2; also called XT-M4 N52D
As to B1, in [1], the “IC50 (read off the curve)” value was approximately 0.1 mg/L.

B2: XT-H3 (antibody, mouse IgG1, V domains shown)
VH: QVQLQQPGSELVRPGASVKLSCKTSGYTFTNYWMHWVKQRHGQGLEWIGNLYPGSGRTNYDEKFKSKVTLTEDTSSSTAYMHLSNLTSEDSAVYYCTSLRRGFVYWGQGTLVTVSA
VL: NIVMTQSPEYMSMSFGERVTLTCKASENVGSYVSWYQQKSEQSPKLLIYGASNRYTGVPDRFTGSGSATDFTLTITSVQAEDLADYHCGQTYTYPYTFGGGTKLEIK
notes: also called 1hRAGEP3/18
On to B2, for which the binding result in assay [2] and in assay [3] was “binds” throughout.

B3: XT-M4-hVH-V2.0-2m/hVL-V2.10 (antibody, V domains shown)
VH: EVQLVESGGGLVQPGGSLRLSCAASGFTFNNYWMTWVRQAPGKGLEWVASIDNSGDNTYYPDSVKDRFTISRDNAKNSLYLQMNSLRAEDTAVYYCARGGDITTGFDYWGQGTLVTVSS
VL: DIQMTQSPSSLSASVGDRVTITCRASQDVGIYVNWFQQKPGKAPKRLIYRATNLADGVPSRFSGSGSGTDFTLTISSLQPEDFATYYCLEFDEHPLTFGGGTKVEIK
notes: '2m' is not explained; also called XT-M4-hVH-2.0-2m/hVL-V2.10
B3: the OD450 amounted to 0.004 in assay [4]; 0.001 in assay [5]; 3.81 in [6]; 0.007 in assay [7]; 0.01 in assay [8]; 0.007 in [9]. The OD450 in assay [10] was 0.01; in assay [11], 0.016.

B4: XT-M4-hVH-V2.0-2m/hVL-V2.11 (antibody, V domains shown)
VH: B3 VH
VL: B3 VL with K45R, G66R
notes: '2m' is not explained
Regarding B4, the OD450 was 0.011 in [4]; 0.003 in assay [5]; 3.83 in [6]; 0.022 in [7]; 0.009 in assay [8]; 0.004 in assay [9]. Moreover, the OD450 amounted to 0.012 in assay [10] and 0.01 in [11].

B5: XT-H7 (antibody, mouse IgG1, V domains shown)
VH: QVQLKESGPGLVAPSQSLSITCTVSGFSLTNYGVHWVRQPPGKGLEWLGVMWAGGSTTYNSALMSRLSISKDNSKSQVFLKMNSLQTDDTAMYYCARYGNYAMDYWGQGTSVTVSS
VL: DIQMTQSPSSLSASLGGKVTITCKASQDIYKYIAWYQHKPGKGPRLLIHYTSTLQPGIPSRFSGSGSGRDYSFSISNLEPEDIATYYCLRYDNLYTFGGGTKLEIK
notes: also called 1hRAGEP3/66
Consider B5, for which the binding result in assay [2] and in assay [3] was “binds” each time.

B6: XT-H2 (antibody, mouse IgG1, V domains shown)
VH: QVQLQQSGAELAKPGASVKMSCKASGYTFTTYWMHWVKQRPGQGLYWIGYINPSTGYTEYNQKFKDKATLTADKSSSTAYMQLSSLTSEDSAVYYCARWAGYTIDYWGQGTSVTVSS
VL: DVVLTQTPLSLPVNIGDQASISCKSTKSLLNSDGFTYLDWYLQKPGQSPQLLIYLVSDRFSGVPDRFSGSGSGTDFTLTISRVEAEDLGVYYCFQSNSLPLTFGSGTKLEIK
notes: also called 1hRAGEP3/16; murine anti-huRAGE monoclonal antibody XT-H2
With B6, the “IC50 (read off the curve)” value in assay [12] was approximately 0.2 mg/L. Further, the EC50 in assay [13] was determined as 0.09 nM. Also, in [14], the Ka was 9.48e+08 M⁻¹, the Kd is 1.06 nM, the koff amounted to 0.00116 s⁻¹ and the kon is 1.1e+06 M⁻¹ s⁻¹. In assay [15], this molecule gave a Ka of 1.14e+10 M⁻¹, a Kd of 0.0876 nM, an off-rate constant (koff) of 0.000504 s⁻¹ and a kon of 5.76e+06 M⁻¹ s⁻¹. Besides, the EC50 in [16] was determined as 0.1 nM.
